# Laboratory results published in the Immune Epitope Database (IEDB).
# Target: HLA-A*02:01
# Test: IEDB peptide-MHC binding, purified MHC/competitive/radioactivity; ≥ and ≤ were set here for values at or beyond the usual limits of such assays
# Settings: source organism: Homo sapiens
row,Sequence,IC50 [nM]
1,KVAELVHFLL,55.6
2,KIWEELSML,167
3,HLFIYATCLGL,54.3
4,LLGICLTSTV,102
5,ALCRWGLLLA,139

# The next sequences have a lower IC50 than those just listed; values first:
row,IC50 [nM],Sequence
1,9.8,KMVELVHFL
2,36.8,GIMIGVLVGV
